Target: T1, soluble human FcRn (human, UniProt P55899 24-290; P61769 21-119)
T1 construct: Complex of FcRn and beta 2-microglobulin; the secreted protein lacks them
Test: Biacore, human FcRn

| fold binding against TOCILIZUMAB-IgG1 [times] | Binder |
| --- | --- |
| ~1.4 | TOCILIZUMAB-M58 (antibody, IgG2, IgG2-derived constant region (WT-SKSC with further changes, Gly446 and Lys447 deleted); also called WT-M58/WT-kappa) heavy: QVQLQESGPGLVRPSQTLSLTCTVSGYSITSDHAWSWVRQPPGRGLEWIGYISYSGITTYNPSLKSRVTMLRDTSKNQFSLRLSSVTAADTAVYYCARSLARTTAMDYWGQGSLVTVSSASTKGPSVFPLAPSSKSTSGGTAALGCLVKDYFPEPVTVSWNSGALTSGVHTFPAVLQSSGLYSLSSVVTVPSSNFGTQTYTCNVDHKPSNTKVDKTVERKSCVECPPCPAPPVAGPSVFLFPPKPKDTLMISRTPEVTCVVVDVSQEDPEVQFNWYVDGVEVHNAKTKPREEQFNSTFRVVSVLTVVHQDWLNGKEYKCKVSNKGLPAPIEKTISKTKGQPREPQVYTLPPSQEEMTKNQVSLTCLVKGFYPSDIAVEWESNGQPENNYKTTPPMLDSDGSFFLYSKLTVDKSRWQEGNVFSCSVMHEALHNHYTQKSLSLSP light: not shown |
| ~3.8 | TOCILIZUMAB-M73 (antibody, WT-M58 with asparagine 434 (EU) changed to alanine; also called WT-M73/WT-kappa) heavy: QVQLQESGPGLVRPSQTLSLTCTVSGYSITSDHAWSWVRQPPGRGLEWIGYISYSGITTYNPSLKSRVTMLRDTSKNQFSLRLSSVTAADTAVYYCARSLARTTAMDYWGQGSLVTVSSASTKGPSVFPLAPSSKSTSGGTAALGCLVKDYFPEPVTVSWNSGALTSGVHTFPAVLQSSGLYSLSSVVTVPSSNFGTQTYTCNVDHKPSNTKVDKTVERKSCVECPPCPAPPVAGPSVFLFPPKPKDTLMISRTPEVTCVVVDVSQEDPEVQFNWYVDGVEVHNAKTKPREEQFNSTFRVVSVLTVVHQDWLNGKEYKCKVSNKGLPAPIEKTISKTKGQPREPQVYTLPPSQEEMTKNQVSLTCLVKGFYPSDIAVEWESNGQPENNYKTTPPMLDSDGSFFLYSKLTVDKSRWQEGNVFSCSVMHEALHAHYTQKSLSLSP light: not shown |
